The data set is described as follows: label from the status in PepcDB records.
As to “MSLEDHAEELASDLGVDKEEVTRDLENLVNYSVPMDEAKQSLRRKYGDGSSGGDSTPSSKAINEVSTEDSNVTVTAVVLTSGRRSIQYNGEQHVIREGELADETGKISYTAWDGFSGDLQPGQTVQLGNAGVREWDGQPELNLGDSTDPEVVDETLDIDYDVGGRAALQDLAPGDRGITVEVQVLECEQKVIDGRDGETTILSGVLGDESGRLPFTDWDPHDEIEEGASVRLDETFVREFRGAPSVNVSEFSAVTALDRTVGVTEDAPRLSVREAVESGGLFDVELAGNVIEVRDGSGLIERCPECGRVIQNGQCRSHGAVEGEDDLRTKAILDDGTDTVTAVLDDELTARVYGGDLDDAREHARDAMDKEVVAERISDRIVGREYVVRGSLSVDEYGANLTASTFAEADDDPATRAQALLQEADTLEHHHHHH”, the protein production entry is reported as “not failed”.
On to “MSLEEVIEQLREANEPVPVPLELPDEDQLVEIEEQLFINIPFVFKEFLLTVSDVVYGSLEPVTVTDPQSHTYLPEVCATAWDLGVPRELIPICQDGEDYYCVEEDGTVLLWSAEEELVTEESWESVWHWARDVWLESEGHHHHHH”, for which the protein production result is “not failed”.
To “MSLEKLKLIGDERLDYLLAENLRIIQSPSVFSFSIDAVLLAKFSYLPIRKGKIIDLCSGNGIIPLLLSTRTKAKIVGVEIQERLADMAKRSVAYNQLEDQIEIIEYDLKKITDLIPKERADIVTCNPPYFATPDTSLKNTNEHFRIARHEVMCTLEDTIRVAASLLKQGGKANFVHRPERLLDIIDIMRKYRLEPKRIQFVHPRSDREANTVLVEGIKDGKPGVKYVPPVIVYDELGEYTPVIKEILYGESEGHHHHHH” belongs “not failed”; to “MSLEQASVTNDFSENKQGCIQHPWQGKKVGYIGDSITDPNCYGDNIKKYWDFLKEWLGITPFVYGISGRQWDDVPRQAEKLKKEHGGEVDAILVFMGTNDYNSSVPIGEWFTEQEEQVLSAHGEMKKMVTRKKRTPVMTQDTYRGRINIGITQLKKLFPDKQIVLLTPLHRSLANFGDKNVQPDESYQNGCGEYIDAYVQAIKEAGNIWGIPVIDFNAVTGMNPMVEEQLIYFYDAGYDRLHPDTKGQERMARTLMYQLLALPVAFEGHHHHHH”, “not failed”; to “MSLETVRLQRELIEAQRQTYNEMRTYFTVNGVEGVIGAVFDEGVITLRVPSEVLFAPGAVELAPGADRVLATLKDLFIRRREQNINIKGFTDDVQPSANARFKDNWEVSALRSVNVLRYFLGAGIEPARLTATGLGELDPLFPNTSDENRARNRRVEFVLERRVVREGHHHHHH”, “not failed”.
Next, “MSLEWQDLAQLPVSIFKDYVTDAQDAEKPFIWTEVFLREINRSNQEIILHIWPMTKTVILGMLDRELPHLELAKKEIISRGYEPVVRNFGGLAVVADEGILNFSLVIPDVFERKLSISDGYLIMVDFIRSIFSDFYQPIEHFEVETSYCPGKFDLSINGKKFAGLAQRRIKNGIAVSIYLSVCGDQKGRSQMISDFYKIGLGDTGSPIAYPNVDPEIMANLSDLLDCPMTVEDVIDRMLISLKQVGFNDRLLMIRPDLVAEFDRFQAKSMANKGMVSRDEEGHHHHHH”: “not failed”.
“MSLFMSCVGILVLLFIGFLLSENKKAINVRTIVIALITQISFGAFVMYVPLGQGILQMMSDAVNHIINFSNEGLTFVFGDLANYKVGFIFVINVLCVVIFISALISVLYYLKIMQFVINLIGGALSKLFGTSKAESMSATANIFVGPIEAPSMVRPLIKKMTRSELFAVMTGGLASVAGGTMIGYINLGIDPKYILTACFMTAPAGLLFAKLLCPQTEQEKITNEIEIDDETTPKSLLDAITDGSIMGMNQVATVTALLISFVALIALVNSLVGGIGDLISIEGLSLELIIGYILSPLAFLMGVPWSEAVTAASLIGQKIAVNEFVAYINFIEIAETLSPKTQAIVVFSLCGFANIGSLAMVIGGLGAICPNKRHILSEIGPRVLMAAILANLMSGTIAGALLSFS”: the protein production result is given as “failed”.
Next, “MSLGAFLDKPKTEKHNAHGAGNGLRYGLSSMQGWRVEMEDAHTAVVGIPHGLEDWSFFAVYDGHAGSRVANYCSTHLLEHITTNEDFRAAGKSGSALELSVENVKNGIRTGFLKIDEYMRNFSDLRNGMDRSGSTAVGVMISPKHIYFINCGDSRAVLYRNGQVCFSTQDHKPCNPREKERIQNAGGSVMIQRVNGSLAVSRALGDYDYKCVDGKGPTEQLVSPEPEVYEILRAEEDEFIILACDGIWDVMSNEELCEYVKSRLEVSDDLENVCNWVVDTCLHKGSRDNMSIVLVCFSNEGHHHHHH”: “not failed”.
On to “MSLGFVTAAYIIAALLFIMSLAGLSKHETAKAGCWYGISGMAIALFATIFGPQSYGTIWILIAMAIGGYIGIQKALKVEMTAMPELVAILHSFVGLAAVLVGFNSYGLHNDPLIPSNLDAVARANFIVEQQTLATIHYIEVFLGIFIGAVTFSGSLIAFGKLSGNLFGCKVSSVALNLPNKHKLNLAALIISGLLMMVFLNNPVNIFPVLIMTIIALALGWHLVASIGGADMPVVVSMLNSYSGWAAAAAGFMLSNDLLIVTGALVGSSGAILSYIMCKAMNRSFISVIAGGFGNEMKADSAAEQAQGEHRETTVEDVAEMLKNAHSVIITPGYGMAVAQAQYPVAEITAKLREKGINVRFGIHPVAGRLPGHMNVLLAEAKVPYDVVLEMDEINDDFENTDVVLVIGANDTVNPAALDDPSSPIAGMPVLEVWKAQNVVVFKRSMAVGYAGVQNPLFFKENTQMLFGDAKERVDDILRALN”, for which the protein production result is “failed”.
As for “MSLGHGDEGITPLSSEIVNFSTTVWTDGDKDHLEKHLVENLNCIRHYPEPDAGTLRQMLAKRNSVDNNAILVTNGPTAAFYQIAQAFRGSRSLIAIPSFAEYEDACRMYEHEVCFYPSNEDIGEADFSNMDFCWLCNPNNPDGRLLQRTEILRLLNDHPDTTFVLDQSYVSFTTEEVIRPADIKGRKNLVMVYSFSHAYGIPGLRIGYIVANKDFMKRVAAFSTPWAVNALAIEAAKFILIHPAQFTLPIRKWQRNTVDFITALNRLDGVEVHPSGTTFFLLRLKKGTAAELKKYMLEEYNMLIRDASNFRGLDESYVRITTQRPAQNQLFIKALETFLEKYEGHHHHHH”, the protein production entry is “not failed”.
Turning to “MSLHAAAVGPSVLPDLREQVEQIIAEARRQGASACEVAVSLEQGLSTSVRQGEVETVEFNRDQGFGITLYAGQRKGSASTSATGEAAIRETVAAALAIARHTSEDECAGLADAALMARELPELDLYHPWSLSPEQAVERALACEAAAFAADKRVTKADGTTLNTHQGCRVYGNSHGFIGGYASTRHSLSCVMIAEGEGQMQRDYWYDVNRRGEALASAESIGRRAAERAASRLGARPVQTAEVPVLFAPEIAVGLFGHFLGAISGGSLYRKSSFLEGALGQRLFPEWLSIDERPHLVGALGSASFDSDGLATYAKPFVENGELVSYVLGTYSGRKLGLPSTANAGGVHNLFVSHGDEDQAALIRRMERGLLVTELMGQGVNLVTGDYSRGAAGYWVENGEIQFPVQEVTIAANLRDLFRRIVAVGKDIERRGNLHTGSVLVESMMVAGR”, the protein production result is recorded as “not failed”.
To “MSLHASAIESIETIIVDLPTIRPHKLAMHTMQNQTLVLIRLRCADGIEGLGESTTIGGLAYGNESPDSIKTNIDRFVAPLLIGQDASNINAAMLRLEQSIRGNTFAKSGIESALLDAQGKRLGLPVSELLGGRVRDALPVAWTLASGDTAKDIAEAQKMLDLRRHRIFKLKIGAGEVDRDLAHVIAIKKALGDSASVRVDVNQAWDEAVALRACRILGGNGIDLIEQPISRNNRAGMVRLNASSPAPIMADESIECVEDAFNLAREGAASVFALKIAKNGGPRATLRTAAIAEAAGIGLYGGTMLEGGIGTLASAHAFLTLNKLSWDTELFGPLLLTEDILAEPPVYRDFHLHVSKAPGLGLSLDEERLAFFRRDKTTPVLHHTEGHHHHHH” belongs “not failed”.
To “MSLHFQILLWLSILFIIAGTILLVTMLKTKKEERKESYLGFTVIFLIFGFAILIYTFIFGIL” belongs “failed”; to “MSLIDLYDLRMPQRTGTYVLHEENLAIIETGPSPSVPHLLAGLKALHIDPADIRYIIVTHIHLDHAGGVGVLLEHCPNATVIVHPKGKRHLADPSRLIAGAKAVYGEQFDALFDPIVPVPEERLLVKEDGETLVLSAERTLTFYDTPGHANHHFSIYDSYSGGVFTGDTIGVFYPQLQEAGLAFCLPSTSPNQFNPEAMKQSAERLEKLNPTRIYFGHFGALDQPEEAFRQLRFWLPKFVAAGKEVIARHPEAPAAEQAKAVTKLLHNDITAFLNECSIPASSPVYKVIELDLQVCAMGIIDYWRKQRLEHHHHHH”, “failed”.

Values taken from a protein production outcome set (Wang et al. 2014).
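Note: failed if final PepcDB status was selected cloned or expressed and not failed if soluble or beyond.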
